Experiments:
Type in all cases: cell-based, human
H9 hESCs [1] = test: ALK inhibitor test on BMP4 patterns (BRA immunostaining, day 2); settings: 1 μM A83-01, 10 μM SB-431542 or 2 μM LDN-212854 added for the initial 24 h
Experimental: For localized mesendoderm differentiation, 2-2.5 ng/μl BMP4 solution was placed with various patterns on different substrates. For glass surfaces, 1.5 ng/μl BMP4 solution was used. 5 ng/μl noggin solution was placed as a droplet to show an inhibitory effect of noggin on BMP4-induced mesendoderm differentiation. After washing, substrate was coated with Matrigel® for 2 hours as described above. Glass was coated with Matrigel® overnight. 0.025 mg/ml Synthemax (Corning, 3535) (final concentration, diluted in water) was added to a washed TC-treated plate and the plate was incubated for 2 hours at room temperature prior to cell seeding. 5 μg/ml truncated recombinant human vitronectin (Gibco, A14700) diluted in PBS was added to a washed TC-treated plate and the plate was incubated for 1 hour at room temperature prior to cell seeding. After ECM coating, the ECM solution was aspirated and hPSCs were singularized using Accutase (10 min incubation at 37° C.), resuspended in mTeSR1 supplemented with 5 μM Y-27632, and seeded at 5×10^5 to about 1×10^6 cells/cm^2 on coated substrates (day 0). […]
(§1) For immunostaining of other protein markers, cells were fixed in 4% paraformaldehyde (Electron Microscopy Sciences, 15710-S) in PBS for 15 min at room temperature, washed with PBS three times, and incubated in diluted primary antibodies in 5% nonfat dry milk (Santa Cruz Biotechnology, sc-2324)/0.4% Triton X-100 (Fisher Scientific, BP151-500) PBS overnight at 4° C. […] After secondary antibody staining, the cells were washed with PBS three times, incubated in 2 μg/ml Hoechst 33342 diluted in PBS for 5 min at room temperature, washed with PBS two times, and analyzed under the fluorescence microscope.
Next, BMP4 solution was placed on TC-treated plates in various patterns (droplet, letters, circle, heart, and star), and hPSCs seeded onto the substrate in mTeSR1 maintenance medium. […] Since the presence of inhibitory morphogens is also important in developmental patterning, a BMP inhibitor, noggin, was evaluated for antagonism to localized BMP4-induced mesendoderm differentiation. […]

H9 hESCs [2] = test: Noggin droplet pattern, inhibitory effect on BMP4-induced mesendoderm differentiation (BRA immunostaining); settings: 5 ng/μl noggin droplet on TC-treated PS; mTeSR1 with 10 ng/ml BMP4, 2 days
Experimental: For localized mesendoderm differentiation, 2-2.5 ng/μl BMP4 solution was placed with various patterns on different substrates. For glass surfaces, 1.5 ng/μl BMP4 solution was used. 5 ng/μl noggin solution was placed as a droplet to show an inhibitory effect of noggin on BMP4-induced mesendoderm differentiation. After washing, substrate was coated with Matrigel® for 2 hours as described above. Glass was coated with Matrigel® overnight. 0.025 mg/ml Synthemax (Corning, 3535) (final concentration, diluted in water) was added to a washed TC-treated plate and the plate was incubated for 2 hours at room temperature prior to cell seeding. […]
as §1, with “microscope. […]” for “microscope.”

H9 hESCs [3] = test: Localized definitive endoderm differentiation of hPSCs on adsorbed activin A patterns (SOX17/FOXA2 immunostaining)
Experimental: For immunostaining of other protein markers, cells were fixed in 4% paraformaldehyde (Electron Microscopy Sciences, 15710-S) in PBS for 15 min at room temperature, washed with PBS three times, and incubated in diluted primary antibodies in 5% nonfat dry milk (Santa Cruz Biotechnology, sc-2324)/0.4% Triton X-100 (Fisher Scientific, BP151-500) PBS overnight at 4° C. Then, the cells were washed with PBS three times and incubated in diluted secondary antibody in 5% nonfat dry milk/0.4% Triton X-100 PBS for 30 min at room temperature. After secondary antibody staining, the cells were washed with PBS three times, incubated in 2 μg/ml Hoechst 33342 diluted in PBS for 5 min at room temperature, washed with PBS two times, and analyzed under the fluorescence microscope.
For localized definitive endoderm differentiation, 25 ng/μl activin A solution was placed with various patterns on a TC-treated plate. Matrigel® coating and hPSC seeding was performed as the same way described above. Medium was changed daily with RPMI1640 medium supplemented with 2% FBS. For the ALK inhibitor test, 1 μM A83-01 (Tocris, 2939), 10 μM SB-431542 (Tocris, 1614), or 2 μM LDN-212854 (Tocris, 6151) was added to mTeSR1 at day 0. […]

[4] = system: H9 hESC-derived cardiac progenitor cells (CPCs); test: Localized EpiC differentiation of hPSC-derived cardiac progenitors on morphogen droplets (WT1 immunostaining); settings: droplets on TC-coated PS plate, 7d after cardiac progenitor seeding
Experimental: For localized EpiC differentiation, BMP4 (2 ng/μl)+Wnt3a (40 ng/μl) solution was placed in PDMS stencil masks either on a TC-treated plate or an ibidi 35 mm polymer dish. Matrigel® coating was performed as described above. Cryopreserved CPCs were thawed and seeded at 500,000-550,000 cells/cm^2 in LaSR medium (advanced DMEM/F12 (Gibco, 12634-010) supplemented with 60 μg/ml ascorbic acid (Sigma, A8960) and 2.5 mM Glutamax (Gibco, 35050-061)) supplemented with 5 μM Y-27632). Medium was changed daily with fresh LaSR medium until analysis. Time lapse imaging of CPCs derived from H9-hTNNT2-GFP hESC during localized EpiC differentiation was performed using a fluorescence microscope equipped with a heating stage top incubator. 18 days after CPC seeding, cells cultured on an ibidi polymer dish were immunostained and imaged using a confocal microscope (Nikon, A1R-SI+) for the analysis of sarcomere structure.
Spatial organization of cell fate commitment is important throughout development. […] These cardiac progenitors can further differentiate into CMs without any specific external signaling factors and can also differentiate into EpiCs upon activation of canonical Wnt signaling (Bao et al. (2016) Nature biomed. Eng. 1, 1-12).

NC(=O)c1ccc(-c2nc(-c3ccc4c(c3)OCO4)c(-c3ccccn3)[nH]2)cc1 [SB431542]
BRA expression in cells on the BMP4-patterned area (H9 hESCs [1]): suppressed BRA expression

c1cc(-c2cnn3cc(-c4ccc(N5CCNCC5)cc4)cnc23)c2cccnc2c1 [LDN-212854]
BRA expression in cells on the BMP4-patterned area (H9 hESCs [1]): suppressed BRA expression

Cc1cccc(-c2nn(C(=S)Nc3ccccc3)cc2-c2ccnc3ccccc23)n1 [A83-01]
BRA expression in cells on the BMP4-patterned area (H9 hESCs [1]): suppressed BRA expression

B1: noggin: human recombinant noggin (R&D Systems, 6057-NG-025), a BMP inhibitor (protein, UniProt Q13253 28-232, looked up)
Noggin: QHYLHIRPAPSDNLPLVDLIEHPDPIFDPKEKDLNETLLRSLLGGHYDPGFMATSPPEDRPGGGGGAAGGAEDLAELDQLLRQRPSGAMPSEIKGLEFSEGLAQGKKQRLSKKLRRKLQMWLWSQTFCPVLYAWNDLGSRFWPRYVKVGSCFSKRSCSVPEGMVCKPSKSVHLTVLRWRCQRRGGQRCGWIPIQYPIISECKCSC
effect on BMP4-induced mesendoderm differentiation (BRA expression) (H9 hESCs [2]): inhibited BMP4-induced mesendoderm differentiation

B2: activin A: human recombinant activin A (R&D Systems, 338-AC-010), morphogen (protein, UniProt P08476 311-426, looked up)
Inhibin beta A chain: GLECDGKVNICCKKQFFVSFKDIGWNDWIIAPSGYHANYCEGECPSHIAGTSGSSLSFHSTVINHYRMRGHSPFANLKSCCVPTKLRPMSMLYYDDGQNIIKKDIQNMIVEECGCS
endoderm differentiation (patterned SOX17 expression) (H9 hESCs [3]; 25 ng/μl activin A adsorbed on TC-treated plate, day 3): induced localized endoderm differentiation | cells expressing SOX17 and FOXA2 on the patterned area (H9 hESCs [3]; day 5 of differentiation): almost all of the cells

B3: Wnt3a: human recombinant Wnt3a (R&D Systems, 5036-WN-010), morphogen (protein, UniProt P56704 19-352, looked up)
Protein Wnt-3a: SYPIWWSLAVGPQYSSLGSQPILCASIPGLVPKQLRFCRNYVEIMPSVAEGIKIGIQECQHQFRGRRWNCTTVHDSLAIFGPVLDKATRESAFVHAIASAGVAFAVTRSCAEGTAAICGCSSRHQGSPGKGWKWGGCSEDIEFGGMVSREFADARENRPDARSAMNRHNNEAGRQAIASHMHLKCKCHGLSGSCEVKTCWWSQPDFRAIGDFLKDKYDSASEMVVEKHRESRGWVETLRPRYTYFKVPTERDLVYYEASPNFCEPNPETGSFGTRDRTCNVSSHGIDGCDLLCCGRGHNARAERRREKCRCVFHWCCYVSCQECTRVYDVHTCK
EpiC differentiation (WT1 expression) [4]: limited if any EpiC differentiation

From patent US20230002728A1, “STEM CELL FATE ENGINEERING METHODS” (Wisconsin Alumni Research Foundation, priority 2021, published 2023)
